Kd data for one molecule are collected here from PMC12375108.

This test has as its target GST-tagged T. marianensis hinT H100N (Thermaerobacter marianensis). In words: BLI; GST-hinT (90 nM) immobilised on anti-GST biosensors; sucA-AMP 500 to 7.81 nM, unmodified sucA at 500 nM; 10 mM Tris pH 8, 150 mM NaCl, 0.1% Triton X-100; KD from steady-state responses, one site. A general note: Biolayer interferometry detects binding as a change in optical thickness at a sensor tip.

B1: AMPylated sucA (enzyme)
chain: MQNSALKAWLDSSYLSGANQSWIEQLYEDFLTDPDSVDANWRSTFQQLPGTGVKPDQFHSQTREYFRRLAKDASRYSSTISDPDTNVKQVKVLQLINAYRFRGHQHANLDPLGLWQQDKVADLDPSFHDLTEADFQETFNVGSFASGKETMKLGELLEALKQTYCGPIGAEYMHITSTEEKRWIQQRIESGRATFNSEEKKRFLSELTAAEGLERYLGAKFPGAKRFSLEGGDALIPMLKEMIRHAGNSGTREVVLGMAHRGRLNVLVNVLGKKPQDLFDEFAGKHKEHLGTGDVKYHMGFSSDFQTDGGLVHLALAFNPSHLEIVSPVVIGSVRARLDRLDEPSSNKVLPITIHGDAAVTGQGVVQETLNMSKARGYEVGGTVRIVINNQVGFTTSNPLDARSTPYCTDIGKMVQAPIFHVNADDPEAVAFVTRLALDFRNTFKRDVFIDLVCYRRHGHNEADEPSATQPLMYQKIKKHPTPRKIYADKLEQEKVATLEDATEMVNLYRDALDAGDCVVAEWRPMNMHSFTWSPYLNHEWDEEYPNKVEMKRLQELAKRISTVPEAVEMQSRVAKIYGDRQAMAAGEKLFDWGGAENLAYATLVDEGIPVRLSGEDSGRGTFFHRHAVIHNQSNGSTYTPLQHIHNGQGAFRVWDSVLSEEAVLAFEYGYATAEPRTLTIWEAQFGDFANGAQVVIDQFISSGEQKWGRMCGLVMLLPHGYEGQGPEHSSARLERYLQLCAEQNMQVCVPSTPAQVYHMLRRQALRGMRRPLVVMSPKSLLRHPLAVSSLEELANGTFLPAIGEIDELDPKGVKRVVMCSGKVYYDLLEQRRKNNQHDVAIVRIEQLYPFPHKAMQEVLQQFAHVKDFVWCQEEPLNQGAWYCSQHHFREVIPFGASLRYAGRPASASPAVGYMSVHQKQQQDLVNDALNVE
modifications: multiple AMPylation sites, residues not given
Broadly, the Kd is the concentration at which binding is half-saturated. Molecule B1 displayed a Kd of 9 nM.
